This is an account of results in US20060234917A1.

The target of assay [1] is BAFF (Homo sapiens (Human)) (UniProt Q9Y275). The assay can be described thus: BIAcore 3000, solution-phase equilibrium binding; free BAFF read on a BCMA-Fc chip; apparent KD. For orientation: Surface plasmon resonance follows binding to a sensor surface in real time, without labels.
The target is the same in assay [2]. The assay can be described thus: BIAcore 3000, solution-phase equilibrium binding, fit to a quadratic equation.

“vBAFF-R(R3-A72):Fc (from UniProt Q96RJ3 2-71) (Fc fusion)”: the Kd in assay [1] was under 200 µM. The stoichiometry (BAFF:BAFF-R:Fc) (BAFF:BAFF-R:Fc) in assay [2] was 1.

“vBAFF-R(R3-A49):Fc (from UniProt Q96RJ3 2-48) (Fc fusion)”: the Kd in assay [1] was under 200 µM. This substance also returned a stoichiometry (BAFF:BAFF-R:Fc) (BAFF:BAFF-R:Fc) in assay [2] of 1.
